From patent US20100166772A1 (published 2010)

Columns and labels:
[1] = molecular target: ORF0657n on the cell surface of S. aureus (S. aureus, UniProt A5IS15 41-613); experiment: cell-based or functional assay
[2] = molecular target: T1, ORF0657n [42-254] (CNBr fragment of ORF0657t, SDS PAGE band 7) (S. aureus, UniProt A5IS15 42-254); experiment: Western blot of CNBr fragments of ORF0657t, column Western negative, band 7
T1 construct: also called 26 kDa band
T1 sequence: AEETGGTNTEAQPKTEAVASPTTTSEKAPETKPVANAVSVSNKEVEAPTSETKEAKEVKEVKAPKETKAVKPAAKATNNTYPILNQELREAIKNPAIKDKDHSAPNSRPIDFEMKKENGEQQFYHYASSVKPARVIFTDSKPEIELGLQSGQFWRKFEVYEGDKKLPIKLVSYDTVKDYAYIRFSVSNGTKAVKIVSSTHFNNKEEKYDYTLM

[3] = molecular target: T2, ORF0657n [255-486] (CNBr fragment of ORF0657t, SDS PAGE band 7) (S. aureus, UniProt A5IS15 255-486); experiment: as above
T2 construct: also called 26 kDa band

[4] = molecular target: T3, ORF0657n [254-384] (CNBr fragment of ORF0657t, SDS PAGE band 8) (S. aureus, UniProt A5IS15 254-384); experiment: Western blot of CNBr fragments of ORF0657t, column Western negative, band 8
T3 construct: Limits as printed; also called 16 kDa band

[5] = molecular target: T4, ORF0657n [254-396] (CNBr fragment of ORF0657t, SDS PAGE band 8) (S. aureus, UniProt A5IS15 254-396); experiment: as above
T4 construct: Limits as printed; also called 16 kDa band

[6] = molecular target: T5, ORF0657n [343-486] (CNBr fragment of ORF0657t, SDS PAGE band 8) (S. aureus, UniProt A5IS15 343-486); experiment: as above
T5 construct: Limits as printed; also called 16 kDa band

[7] = molecular target: T6, ORF0657n [255-375] (CNBr fragment of ORF0657t, SDS PAGE band 9) (S. aureus, UniProt A5IS15 255-375); experiment: Western blot of CNBr fragments of ORF0657t, column Western negative, band 9
T6 construct: Limits as printed; also called 13 kDa band

[8] = molecular target: T7, ORF0657n [375-486] (CNBr fragment of ORF0657t, SDS PAGE band 9) (S. aureus, UniProt A5IS15 375-486); experiment: as above
T7 construct: Limits as printed; also called 13 kDa band

[9] = molecular target: T8, ORF0657n [255-342] (CNBr fragment of ORF0657t, SDS PAGE band 10) (S. aureus, UniProt A5IS15 255-342); experiment: Western blot of CNBr fragments of ORF0657t, column Western negative, band 10
T8 construct: Limits as printed; also called 10 kDa band
T8 sequence: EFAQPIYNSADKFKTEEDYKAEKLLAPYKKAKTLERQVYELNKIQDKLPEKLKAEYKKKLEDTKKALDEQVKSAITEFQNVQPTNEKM

[10] = molecular target: T9, ORF0657n [397-486] (CNBr fragment of ORF0657t, SDS PAGE band 10) (S. aureus, UniProt A5IS15 397-486); experiment: as above
T9 construct: Limits as printed; also called 10 kDa band

[11] = molecular target: T10, ORF0657n [156-254] (CNBr fragment of ORF0657t, SDS PAGE bands 9 and 10) (S. aureus, UniProt A5IS15 156-254); experiment: Western blot of CNBr fragments of ORF0657t, column Western negative, bands 9 and 10
T10 construct: Limits as printed; also called 13 kDa band; 10 kDa band
T10 sequence: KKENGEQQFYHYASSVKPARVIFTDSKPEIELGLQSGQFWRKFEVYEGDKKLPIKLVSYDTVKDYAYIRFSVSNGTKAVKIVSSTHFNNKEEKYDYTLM

Sequence of ORF0657n on the cell surface of S. aureus (A5IS15 41-613 limits assumed): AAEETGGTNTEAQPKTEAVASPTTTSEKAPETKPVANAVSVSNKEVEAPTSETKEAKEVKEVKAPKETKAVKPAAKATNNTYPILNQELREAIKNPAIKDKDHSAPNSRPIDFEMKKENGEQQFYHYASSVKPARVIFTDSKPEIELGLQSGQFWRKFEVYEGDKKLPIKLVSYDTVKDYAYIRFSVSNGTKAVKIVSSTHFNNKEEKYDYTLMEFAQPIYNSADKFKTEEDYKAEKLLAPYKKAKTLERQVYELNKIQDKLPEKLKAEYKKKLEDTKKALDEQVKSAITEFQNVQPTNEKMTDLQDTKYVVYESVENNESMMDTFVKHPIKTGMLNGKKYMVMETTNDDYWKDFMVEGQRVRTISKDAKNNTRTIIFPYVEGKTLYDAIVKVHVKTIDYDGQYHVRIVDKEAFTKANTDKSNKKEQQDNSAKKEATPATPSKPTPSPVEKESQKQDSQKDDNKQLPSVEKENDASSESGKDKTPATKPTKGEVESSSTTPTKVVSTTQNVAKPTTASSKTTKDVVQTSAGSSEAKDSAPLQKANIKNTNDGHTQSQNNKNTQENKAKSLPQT
T4 sequence (A5IS15 254-396): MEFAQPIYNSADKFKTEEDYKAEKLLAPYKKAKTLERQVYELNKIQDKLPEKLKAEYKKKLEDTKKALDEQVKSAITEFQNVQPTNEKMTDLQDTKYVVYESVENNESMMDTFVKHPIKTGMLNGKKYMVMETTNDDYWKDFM
T9 sequence (A5IS15 397-486): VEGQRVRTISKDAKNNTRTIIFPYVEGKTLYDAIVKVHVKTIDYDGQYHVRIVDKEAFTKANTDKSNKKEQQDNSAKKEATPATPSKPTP
T3 sequence (A5IS15 254-384): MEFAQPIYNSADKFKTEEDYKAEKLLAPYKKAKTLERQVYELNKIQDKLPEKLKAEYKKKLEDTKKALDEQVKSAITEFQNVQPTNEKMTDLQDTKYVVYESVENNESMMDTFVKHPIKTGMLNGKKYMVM
T5 sequence (A5IS15 343-486): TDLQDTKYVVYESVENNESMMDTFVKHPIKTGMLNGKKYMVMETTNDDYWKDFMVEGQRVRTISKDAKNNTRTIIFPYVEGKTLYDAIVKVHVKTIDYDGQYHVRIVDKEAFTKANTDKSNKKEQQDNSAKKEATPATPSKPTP
T7 sequence (A5IS15 375-486): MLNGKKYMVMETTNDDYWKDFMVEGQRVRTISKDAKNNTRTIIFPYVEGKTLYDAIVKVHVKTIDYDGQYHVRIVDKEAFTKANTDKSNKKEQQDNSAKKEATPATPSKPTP

B1: mAb CS-D7 (antibody, human IgG1, kappa, V domains shown)
VH: QVQLQESGPGLVKPSETLSLTCTVSGGSIRSSSYYWGWFRQTPGKGLEWLGNVFFSGSAYYNPSLKNRVTISIDTSENQSSLKLTSVTAADTAVYYCARPQAYSHDSSGHSPFDLWGRGTLVTVSS
VL: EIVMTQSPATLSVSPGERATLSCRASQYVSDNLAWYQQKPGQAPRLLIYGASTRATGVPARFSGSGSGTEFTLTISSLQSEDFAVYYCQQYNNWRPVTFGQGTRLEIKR
notes: also called D7 IgG; full length IgG CS-D7
For B1, the “EC50 (read off the curve)” value [1] was roughly 0.02 ug mAb, the binding result [2] was “no binding” and the binding result [3] was “no binding”. B1: no binding [4]; no binding [5]; no binding [6]. B1: no binding [7]; no binding [8]; no binding [9]. B1: no binding [10]; no binding [11].
